Target: the molecule itself
Experiment: cryo-EM structure; single-particle cryo-EM with Build and Retrieve (BaR) on the 100-200 kD SEC peak of raw human kidney microsome lysate; 20 mM Tris-HCl pH 7.5, 100 mM NaCl; 0.6 mg/ml

B1: betaine-homocysteine methyltransferase (BHMT) (enzyme, human (endogenous in kidney microsomes), UniProt Q93088 1-406, looked up)
chain: MPPVGGKKAKKGILERLNAGEIVIGDGGFVFALEKRGYVKAGPWTPEAAVEHPEAVRQLHREFLRAGSNVMQTFTFYASEDKLENRGNYVLEKISGQEVNEAACDIARQVADEGDALVAGGVSQTPSYLSCKSETEVKKVFLQQLEVFMKKNVDFLIAEYFEHVEEAVWAVETLIASGKPVAATMCIGPEGDLHGVPPGECAVRLVKAGASIIGVNCHFDPTISLKTVKLMKEGLEAARLKAHLMSQPLAYHTPDCNKQGFIDLPEFPFGLEPRVATRWDIQKYAREAYNLGVRYIGGCCGFEPYHIRAIAEELAPERGFLPPASEKHGSWGSGLDMHTKPWVRARARKEYWENLRIASGRPYNPSMSKPDGWGVTKGTAELMQQKEATTEQQLKELFEKQKFKSQ
notes: human BHMT, endogenous in kidney microsomes; Zn2+-free and ligand-free in the structure; also called betaine-homocysteine S-methyltransferase; source: endogenous, human kidney microsomes (bought: SEKISUI XenoTech), lysate enriched by size exclusion chromatography
- stoichiometry N: 4

From article PMC9713302, “Simultaneous solving high-resolution structures of various enzymes from human kidney microsomes” (Life Science Alliance, 2022)
